Measurements reported in publication PMC12747267 (bioRxiv, 2025).

Biological target: the molecule itself
Assay: cryo-EM structure

B1: human myosin regulatory light chain (RLC, MYL12B) (natural protein, UniProt O14950 1-172, looked up)
chain: MSSKKAKTKTTKKRPQRATSNVFAMFDQSQIQEFKEAFNMIDQNRDGFIDKEDLHDMLASLGKNPTDAYLDAMMNEAPGPINFTMFLTMFGEKLNGTDPEDVIRNAFACFDEEATGTIQEDYLRELLTTMGDRFTDEEVDELYREAPIDKKGNFNYIEFTRILKHGAKDKDD
binding result: binds
